The target of data set [1] is T1, ScPif1p (237-780) (Saccharomyces cerevisiae, UniProt P07271 237-780).
T1 sequence: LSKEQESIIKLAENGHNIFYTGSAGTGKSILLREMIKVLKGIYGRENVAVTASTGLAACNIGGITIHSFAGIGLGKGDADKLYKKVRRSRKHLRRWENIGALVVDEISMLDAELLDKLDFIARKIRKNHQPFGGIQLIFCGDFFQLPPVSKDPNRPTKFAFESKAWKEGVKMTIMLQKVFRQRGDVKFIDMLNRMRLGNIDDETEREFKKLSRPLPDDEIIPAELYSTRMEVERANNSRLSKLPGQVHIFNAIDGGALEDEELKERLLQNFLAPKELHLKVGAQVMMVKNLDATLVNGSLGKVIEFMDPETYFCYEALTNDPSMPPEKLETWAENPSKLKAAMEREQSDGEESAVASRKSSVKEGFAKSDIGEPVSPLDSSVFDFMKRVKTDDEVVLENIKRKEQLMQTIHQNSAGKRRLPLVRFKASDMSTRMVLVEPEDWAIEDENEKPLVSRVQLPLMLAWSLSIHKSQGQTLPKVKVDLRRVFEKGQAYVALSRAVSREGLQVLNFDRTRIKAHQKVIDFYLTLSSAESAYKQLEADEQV
Nature of the data set: crystal structure.

Data set [2] concerns the target T1, ScPif1p (237-780). Kind of data set: SEC-SAXS.
The target in data set [3] is T1, ScPif1p (237-780). Nature of the data set: fluorescence anisotropy. (In fluorescence polarisation assays a small probe gives low polarisation when free and higher when bound to something large.)
Data set [4] addresses T1, ScPif1p (237-780). Nature of the data set: SEC-SAXS, gel filtration. In general terms: Size exclusion chromatography separates by hydrodynamic size, large species first.
In data set [5] the target is T1, ScPif1p (237-780). Kind of data set: SEC-SAXS, gel filtration. This is another data set of the same source.
Data set [6] addresses T1, ScPif1p (237-780). Kind of data set: fluorescence anisotropy. The source holds these as a separate data set.
Data set [7] concerns the target T2, ScPif1p H303G/H705G (Saccharomyces cerevisiae, UniProt P07271 237-780, H303G;H705G).
T2 sequence: T1 sequence with H67G, H469G
Kind of data set: fluorescence anisotropy.

Data set [8] deals with T1, ScPif1p (237-780). Kind of data set: crystal structure. The source holds these as a separate data set.

Where a chain is given by its changes, count along the chain named. Read-outs that look alike come from different tables or passages of the source.

On to TTTGGGTT (ssDNA) [Poly(T3G3T2)], for which, in data set [1], the binding result is listed as “binds”.

Consider GGGTTTTT (ssDNA) [Poly(G3T5)], for which the binding result in data set [1] is given as “binds”. Turning to GTGTGGTGTGG (ssDNA) [GR11], the binding result in data set [2] is “binds”.

For TTTTTTTTTTTT (ssDNA) [Poly(T12)], binding in data set [3] was put at a Kd of 15.1 nM. AGGGTTAGGGTTAGGGTTAGGG (structured_DNA) [3G4]: in data set [4], the binding result is given as “binds”. As for TTTTTTTTGGGTGGGTGGGTGGGT (structured_DNA) [8T3G4], in data set [5], the binding result is on record as “binds”. For CUCUGCUCGACG (ssRNA) [F-RNA12 (text: Poly(U12))], the Kd – broadly, the free concentration of one partner at which half of the binding sites on the other are occupied at equilibrium, for simple one-to-one binding – in data set [6] is 163 nM; in data set [7], 70.5 nM. For the molecule TTTTTTTT (ssDNA) [Poly(T8)], the binding result in data set [8] is given as “binds”.
